In patent US20240376151A1, “STAPLED PEPTIDES AND METHODS THEREOF” (FOG PHARMACEUTICALS, INC., priority 2022, published 2024):
Numbered stars: 1 amine (or outer) side, 2 acyl side, 3 side chain; on linkers, the order of the positions; unused ones are H or OH. Bridge positions count the residues as written; N and C are the ends. Ends that are not written are not given here. Phenylene(1,4-NHCOCH2)2 = O=C(C[*:1])Nc1ccc(NC(=O)C[*:2])cc1

Target: T1, MDM2 (Homo sapiens, UniProt Q00987)
T1 construct: made in house
Test: Naive Library Presenter Screening (phage, NGS), MDM2
Format: binding
Conditions: for interaction data, BLANK: Blank = Media only

[1] = MDM2 clusters (C82, C85), first column
[2] = MDM2 clusters (C82, C85), second column
[3] = MDM2 clusters (C82, C85), target concentration 10 nM
[4] = MDM2 clusters (C82, C85), target concentration 30 nM
[5] = MDM2 clusters (C82, C85), target concentration 100 nM
[6] = MDM2 clusters (C82, C85), target concentration 300 nM
[7] = MDM2 clusters (C82, C85), target concentration 1000 nM, first column
[8] = MDM2 clusters (C82, C85), target concentration 1000 nM, second column
[9] = MDM2 target concentration 10 nM
[10] = MDM2 target concentration 30 nM
[11] = MDM2 target concentration 100 nM
[12] = MDM2 target concentration 300 nM
[13] = MDM2 target concentration 1000 nM, first column
[14] = MDM2 target concentration 1000 nM, second column

T1 sequence (Q00987 25-109): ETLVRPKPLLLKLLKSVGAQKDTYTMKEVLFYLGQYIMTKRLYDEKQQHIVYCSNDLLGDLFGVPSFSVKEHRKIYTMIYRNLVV

Sequence | interaction data, BLANK [1] | interaction data, BLANK [2] | interaction data at Target Concentration 10 [3] | interaction data at Target Concentration 30 [4] | interaction data at Target Concentration 100 [5] | interaction data at Target Concentration 300 [6] | interaction data at Target Concentration 1000 [7] | interaction data at Target Concentration 1000 [8] | interaction data at Target Concentration 10 [9] | interaction data at Target Concentration 30 [10] | interaction data at Target Concentration 100 [11] | interaction data at Target Concentration 300 [12] | interaction data at Target Concentration 1000 [13] | interaction data at Target Concentration 1000 [14]
DPARQDCFSAAWMCMAI (DPARQDCFSAAWMCMAI-NH2; linker 7-14 via Phenylene(1,4-NHCOCH2)2 (inferred)) | 0 | 0 | 0 | 1 | 94 | 107 | 120 | 114 |  |  |  |  |  | 
DPADNRCFQAAWDCAFW (linker 7-14 via Phenylene(1,4-NHCOCH2)2 (inferred)) |  |  |  |  |  |  |  |  | 1 | 0 | 51 | 22 | 20 | 23
DPATQQCFQAAWDCQFM (linker 7-14 via Phenylene(1,4-NHCOCH2)2 (inferred)) |  |  |  |  |  |  |  |  | 1 | 60 | 324 | 683 |  | 679
DPATESCEDAAFWCHWI (DPATESCEDAAFWCHWI-NH2; linker 7-14 via Phenylene(1,4-NHCOCH2)2 (inferred)) | 0 | 0 | 0 | 0 | 30 | 30 | 30 | 70 |  |  |  |  |  | 
DPAHQQCFMAAWRCVVH (linker 7-14 via Phenylene(1,4-NHCOCH2)2 (inferred)) | 0 | 0 | 1 | 48 | 230 | 375 | 356 | 327 |  |  |  |  |  | 
DPAYTQCSDAAFMCWWW (linker 7-14 via Phenylene(1,4-NHCOCH2)2 (inferred)) | 0 | 0 | 0 | 19 | 32 | 48 | 65 | 62 |  |  |  |  |  | 
DPARVHCNQAAFMCHWV (DPARVHCNQAAFMCHWV-NH2; linker 7-14 via Phenylene(1,4-NHCOCH2)2 (inferred)) | 0 | 0 | 0 | 0 | 9 | 6 | 14 | 8 |  |  |  |  |  | 
DPAHRQCFTAAWRCMMT (linker 7-14 via Phenylene(1,4-NHCOCH2)2 (inferred)) | 0 | 0 | 0 | 42 | 149 | 156 | 202 | 149 |  |  |  |  |  | 
DPAERNCFTAAWQCMVW (linker 7-14 via Phenylene(1,4-NHCOCH2)2 (inferred)) | 0 | 0 | 0 | 23 | 158 | 230 | 135 |  |  |  |  |  |  | 
DPAENECFTAAWDCMFF (linker 7-14 via Phenylene(1,4-NHCOCH2)2 (inferred)) |  |  |  |  |  |  |  |  | 0 | 0 | 7 | 51 | 70 | 40
DPAHNLCFDAAWWCHWQ (linker 7-14 via Phenylene(1,4-NHCOCH2)2 (inferred)) | 0 | 0 | 0 | 0 | 9 | 7 | 8 | 11 |  |  |  |  |  | 

Second part, the sequence after the results:

interaction data, BLANK [1] | interaction data, BLANK [2] | interaction data at Target Concentration 10 [3] | interaction data at Target Concentration 30 [4] | interaction data at Target Concentration 100 [5] | interaction data at Target Concentration 300 [6] | interaction data at Target Concentration 1000 [7] | interaction data at Target Concentration 1000 [8] | interaction data at Target Concentration 10 [9] | interaction data at Target Concentration 30 [10] | interaction data at Target Concentration 100 [11] | interaction data at Target Concentration 300 [12] | interaction data at Target Concentration 1000 [13] | interaction data at Target Concentration 1000 [14] | Sequence
0 | 0 | 0 | 12 | 132 | 166 | 104 | 237 |  |  |  |  |  |  | DPAQQDCFLAAWDCVWQ (DPAQQDCFLAAWDCVWQ-NH2; linker 7-14 via Phenylene(1,4-NHCOCH2)2 (inferred))
 |  |  |  |  |  |  |  | 7 | 11 | 0 | 0 | 5 | 6 | DPADSECFQAASDCQYW (linker 7-14 via Phenylene(1,4-NHCOCH2)2 (inferred))
0 | 0 | 0 | 53 | 106 | 232 | 148 | 261 |  |  |  |  |  |  | DPARRECMDAAFWCQWV (DPARRECMDAAFWCQWV-NH2; linker 7-14 via Phenylene(1,4-NHCOCH2)2 (inferred))
0 | 0 | 0 | 2 | 33 | 74 | 57 | 82 |  |  |  |  |  |  | DPAHYECTDAAFECYWF (linker 7-14 via Phenylene(1,4-NHCOCH2)2 (inferred))
0 | 0 | 0 | 8 | 28 | 27 | 33 | 14 |  |  |  |  |  |  | DPASAECFFAAWQCIAT (DPASAECFFAAWQCIAT-NH2; linker 7-14 via Phenylene(1,4-NHCOCH2)2 (inferred))
0 | 0 | 0 | 0 | 17 | 31 | 32 | 37 |  |  |  |  |  |  | DPARLRCQDAAFACMWY (DPARLRCQDAAFACMWY-NH2; linker 7-14 via Phenylene(1,4-NHCOCH2)2 (inferred))
0 | 0 | 0 | 31 | 138 | 165 | 94 | 231 |  |  |  |  |  |  | DPASQDCFSAAWQCLQT (DPASQDCFSAAWQCLQT-NH2; linker 7-14 via Phenylene(1,4-NHCOCH2)2 (inferred))
0 | 0 | 0 | 0 | 35 | 47 | 52 | 29 |  |  |  |  |  |  | DPAQSDCFQAAWECVAN (DPAQSDCFQAAWECVAN-NH2; linker 7-14 via Phenylene(1,4-NHCOCH2)2 (inferred))
0 | 0 | 0 | 78 | 135 | 155 | 110 | 150 |  |  |  |  |  |  | DPAYSDCFQAAWTCMIH (linker 7-14 via Phenylene(1,4-NHCOCH2)2 (inferred))
0 | 0 | 0 | 0 | 23 | 56 | 53 | 69 |  |  |  |  |  |  | DPAAVQCNTAAFQCYWF (linker 7-14 via Phenylene(1,4-NHCOCH2)2 (inferred))
0 | 0 | 0 | 19 | 102 | 165 | 124 | 209 |  |  |  |  |  |  | DPASADCFNAAWDCMWI (DPASADCFNAAWDCMWI-NH2; linker 7-14 via Phenylene(1,4-NHCOCH2)2 (inferred))
